1 molecule from PMC9622860, “Structural and molecular determinants of Candida glabrata metacaspase maturation and activation by calcium” (Communications Biology, 2022) can be followed below.

The target in this assay is T1, p20 domain of mature CgMCA-I (fragment between the cleavages after R54 and K263) (Candida glabrata, UniProt Q6FPX9 55-263).
T1 construct: Candida glabrata metacaspase CgMCA-I, p20 fragment left after cleavage after R54 and after K263; Residues seen in the maps: from after Gly68 (7QP1) or after Ser72 (7QP0) up to before Asn260; Limits are worked out from the cleavage sites found by mass spectrometry (R54, K263); The N-terminal His tag leaves with residues 1-54; source: E. coli T7 express, purified as CgMCA-I; cleaved by its own …
T1 sequence (looked up): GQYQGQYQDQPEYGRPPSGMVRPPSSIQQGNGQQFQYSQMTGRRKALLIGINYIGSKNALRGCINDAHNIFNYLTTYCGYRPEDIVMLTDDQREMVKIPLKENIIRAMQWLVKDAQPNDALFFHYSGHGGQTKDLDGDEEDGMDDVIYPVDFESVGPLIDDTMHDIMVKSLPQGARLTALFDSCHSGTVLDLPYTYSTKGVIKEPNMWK
Briefly: crystal structure; fully matured CgMCA-I with Ca2+ (7QP1, 3.0 A) and with Mg2+ (7QP0, 1.6 A); N-terminal part and p20-p10 linker cleaved off. The note with it: both partners purified.

B1: p10 domain of mature CgMCA-I (fragment after the cleavage at R307) (domain or fragment, Candida glabrata, UniProt Q6FPX9 308-392, looked up)
chain: QIKFSPADVIMLSGSKDNQTSADTFADGQNIGAMSHAFISVMTRQPQQSYLSLLQNLRNELAGKYSQKPQLSASHPIDVNLQFIM
notes: Candida glabrata metacaspase CgMCA-I, C-terminal p10 fragment left after cleavage after R307; Residues seen in the maps begin after Ile309; Limits are worked out from the cleavage site found by mass spectrometry (R307) and the stated length of 392 residues; also called p10 subunit; source: E. coli T7 express, purified as CgMCA-I; cleaved by its own maturation before or during crystallisation
Take B1: the binding result was “binds”.
